From article PMC10980799, “The transcription of the main gene associated with Treacher–Collins syndrome (TCOF1) is regulated by G-quadruplexes and cellular nucleic acid binding protein (CNBP)”

Key:
CNBP [1] = biological target: T1, CNBP (Homo sapiens, UniProt P62633 1-177); assay: EMSA; 100 mM K+; apparent Kd, SEM, n=3; EMSA: 20 mM HEPES pH 8.0, 10 mM MgCl2, 1 mM EDTA, 0.5 ug/ul heparin, 1 mM DTT, 1 ug/ul BSA, 10% glycerol, 100 mM KCl or LiCl, probe 0.75 uM, 30 min at 37 C; CNBP diluted in 50 mM Tris-HCl pH 7.5, 300 mM NaCl, 1 mM DTT, 5 mM imidazole, 0.1 mM ZnCl2; settings: protein: recombinant, tags: tag-free (from pET-32a-TEV-CNBP, tag removed), label: none (SYBR Gold stain)
CNBP [2] = biological target: T1, CNBP; assay: EMSA; 100 mM Li+; apparent Kd, SEM, n=3; EMSA: 20 mM HEPES pH 8.0, 10 mM MgCl2, 1 mM EDTA, 0.5 ug/ul heparin, 1 mM DTT, 1 ug/ul BSA, 10% glycerol, 100 mM KCl or LiCl, probe 0.75 uM, 30 min at 37 C; CNBP diluted in 50 mM Tris-HCl pH 7.5, 300 mM NaCl, 1 mM DTT, 5 mM imidazole, 0.1 mM ZnCl2; settings: protein: recombinant; tags: tag-free (from pET-32a-TEV-CNBP, tag removed); label: none (SYBR Gold stain); single strand, unfolded

T1 sequence (P62633 whole entry): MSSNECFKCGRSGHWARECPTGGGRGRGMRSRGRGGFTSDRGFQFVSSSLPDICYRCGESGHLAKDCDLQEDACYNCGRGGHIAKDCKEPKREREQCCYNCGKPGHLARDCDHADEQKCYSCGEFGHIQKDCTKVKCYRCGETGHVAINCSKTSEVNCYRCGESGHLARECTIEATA

Binder	Kd (CNBP [1]; parallel G4)	Kd (CNBP [2])	further results
GTGTATGTGGGGGGGGGGGGCGGGTGGTAG (structured_DNA) [Hs2160 folded as G4 (K+)]	431 ± 120 nM	–	–
GTGTATGTGGGGGGGGGGGGCGGGTGGTAG (ssDNA) [Hs2160 unfolded (Li+)]	–	287 ± 100 nM	–
TGGGGTGGGGTGAGGTGGGGAAGAGGGAAC (structured_DNA) [Hs791 folded as G4 (K+)]	271 ± 70 nM	–	–
TGGGGTGGGGTGAGGTGGGGAAGAGGGAAC (ssDNA) [Hs791 unfolded (Li+)]	–	199 ± 55 nM	–
TGCTGGTGGTCATGGGGGAGTGGAGAGCAT (structured_DNA) [Dr2393 folded as G4 (K+)]	–	–	Kd (CNBP [1]; G4): 331 ± 80 nM
TGCTGGTGGTCATGGGGGAGTGGAGAGCAT (ssDNA) [Dr2393 unfolded (Li+)]	–	257 ± 70 nM	–
